The target of this experiment is T1, calcitonin receptors (human T47D / MCF7 breast carcinoma cells) (human), P30988.
T1 chain: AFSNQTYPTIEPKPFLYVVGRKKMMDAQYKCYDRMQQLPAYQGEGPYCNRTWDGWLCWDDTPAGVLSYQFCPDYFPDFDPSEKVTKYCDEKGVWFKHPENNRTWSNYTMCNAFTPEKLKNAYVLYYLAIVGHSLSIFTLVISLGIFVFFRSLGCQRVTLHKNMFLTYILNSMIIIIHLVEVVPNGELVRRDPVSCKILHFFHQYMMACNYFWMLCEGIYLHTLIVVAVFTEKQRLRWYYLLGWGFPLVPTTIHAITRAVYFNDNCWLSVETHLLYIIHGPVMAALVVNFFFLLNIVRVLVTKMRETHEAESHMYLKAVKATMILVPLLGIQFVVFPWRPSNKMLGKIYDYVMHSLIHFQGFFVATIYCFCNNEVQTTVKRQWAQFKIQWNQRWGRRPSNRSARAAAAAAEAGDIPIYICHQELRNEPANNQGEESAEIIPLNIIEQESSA
Kind of experiment: radioligand competition vs 125I-salmon calcitonin, human T47D cell membranes. In general terms: Displacement assays read how much labelled ligand stays bound in the presence of the test substance.

Non-standard residues stand in square brackets, D forms with d. No end group written: not given here. *: point of attachment. Aib = CC(C)(N)C(=O)O; For = O=C*

Results on one molecule are retold here after patent publication EP1053001B1.

By IC50 is commonly meant the concentration at which inhibition is half-maximal.

Regarding VL[Aib]K(For)LSQEL[Aib]K(For)LQTYPRTNTGSNTY-NH2 [Compound 8], the IC50 turned out to be 93 nM.
